The target in the test is Bovine submaxillary mucin (BSM) (bovine). Kind of test: binding of the 125I-labelled protein to BSM.

For “CC49, murine monoclonal antibody specific to TAG-72 (ATCC No. HB9459)”, the Percent Activity (as determined by BSM binding) came out at 96 percent. The result for ChCC49 Fab reads 64 percent.
